Reference: paper doi:10.1101/2025.05.26.656073 (bioRxiv, 2025)

Tests used:
[1] = target: T1, Orange Carotenoid Protein, dark-adapted state (OCP^O), wild type, canthaxanthin-binding holo form (Synechocystis sp. PCC 6803), P74102; assay: SEC; settings: remark: other sources report otherwise
T1 chain: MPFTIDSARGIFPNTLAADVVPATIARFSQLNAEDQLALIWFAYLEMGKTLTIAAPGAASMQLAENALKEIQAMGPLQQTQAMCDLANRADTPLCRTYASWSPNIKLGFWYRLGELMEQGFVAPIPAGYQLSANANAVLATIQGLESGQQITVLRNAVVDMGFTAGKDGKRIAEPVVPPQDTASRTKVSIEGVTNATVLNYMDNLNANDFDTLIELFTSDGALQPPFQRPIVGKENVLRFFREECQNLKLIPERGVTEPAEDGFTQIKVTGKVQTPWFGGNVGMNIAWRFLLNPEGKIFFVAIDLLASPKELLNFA

[2] = target: T1, Orange Carotenoid Protein, dark-adapted …; assay: transient grating spectroscopy; settings: remark: other sources report otherwise
[3] = target: T1, Orange Carotenoid Protein, dark-adapted …; assay: SAXS; settings: remark: other sources report otherwise
[4] = target: T2, apo-OCP (carotenoid-free Orange Carotenoid Protein) (Synechocystis sp. PCC 6803), P74102; assay: SEC; settings: remark: other sources report otherwise
T2 chain: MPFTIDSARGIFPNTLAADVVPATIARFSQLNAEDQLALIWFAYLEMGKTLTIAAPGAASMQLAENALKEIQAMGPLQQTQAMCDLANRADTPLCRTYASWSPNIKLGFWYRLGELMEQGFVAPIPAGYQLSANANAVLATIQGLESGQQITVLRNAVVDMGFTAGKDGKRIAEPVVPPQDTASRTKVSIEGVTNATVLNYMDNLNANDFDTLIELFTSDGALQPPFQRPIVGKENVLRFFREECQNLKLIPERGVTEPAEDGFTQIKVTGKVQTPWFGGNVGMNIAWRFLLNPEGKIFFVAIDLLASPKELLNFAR

[5] = target: T2, apo-OCP (carotenoid-free Orange …); assay: SAXS; settings: remark: other sources report otherwise
SEC = target: the molecule itself; assay: SEC
[6] = target: T3, Orange Carotenoid Protein, light-adapted state (OCP^R), wild type, canthaxanthin-binding holo form (Synechocystis sp. PCC 6803), P74102; assay: SEC; settings: remark: other sources report otherwise
T3 chain: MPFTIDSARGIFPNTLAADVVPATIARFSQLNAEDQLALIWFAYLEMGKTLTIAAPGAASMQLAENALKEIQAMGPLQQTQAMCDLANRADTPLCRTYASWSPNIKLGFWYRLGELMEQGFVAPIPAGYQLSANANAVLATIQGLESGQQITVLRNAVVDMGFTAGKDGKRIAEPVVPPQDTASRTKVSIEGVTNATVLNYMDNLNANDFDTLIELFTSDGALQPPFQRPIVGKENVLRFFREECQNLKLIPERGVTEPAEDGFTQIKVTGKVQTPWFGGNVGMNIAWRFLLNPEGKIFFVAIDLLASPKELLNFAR

[7] = target: T3, Orange Carotenoid Protein, …; assay: SAXS; settings: remark: other sources report otherwise

B1: Orange Carotenoid Protein, dark-adapted state (OCP^O), wild type, canthaxanthin-binding holo form, P74102 1-316 (natural protein)
chain: MPFTIDSARGIFPNTLAADVVPATIARFSQLNAEDQLALIWFAYLEMGKTLTIAAPGAASMQLAENALKEIQAMGPLQQTQAMCDLANRADTPLCRTYASWSPNIKLGFWYRLGELMEQGFVAPIPAGYQLSANANAVLATIQGLESGQQITVLRNAVVDMGFTAGKDGKRIAEPVVPPQDTASRTKVSIEGVTNATVLNYMDNLNANDFDTLIELFTSDGALQPPFQRPIVGKENVLRFFREECQNLKLIPERGVTEPAEDGFTQIKVTGKVQTPWFGGNVGMNIAWRFLLNPEGKIFFVAIDLLASPKELLNFA
[1]
  Kd: 10000 nM
  stoichiometry N: 2
[2]
  fitted dimer fraction (100 µM): 0.6
  k1d (rate constant of the photo-induced dissociation of the OCP^O dimer): 1000 s⁻¹
[3]
  stoichiometry N: 2

B2: apo-OCP (carotenoid-free Orange Carotenoid Protein), P74102 1-317 (natural protein)
chain: MPFTIDSARGIFPNTLAADVVPATIARFSQLNAEDQLALIWFAYLEMGKTLTIAAPGAASMQLAENALKEIQAMGPLQQTQAMCDLANRADTPLCRTYASWSPNIKLGFWYRLGELMEQGFVAPIPAGYQLSANANAVLATIQGLESGQQITVLRNAVVDMGFTAGKDGKRIAEPVVPPQDTASRTKVSIEGVTNATVLNYMDNLNANDFDTLIELFTSDGALQPPFQRPIVGKENVLRFFREECQNLKLIPERGVTEPAEDGFTQIKVTGKVQTPWFGGNVGMNIAWRFLLNPEGKIFFVAIDLLASPKELLNFAR
[4]
  Kd: 500 nM
  stoichiometry N: 2
[5]
  stoichiometry N: 2

B3: OCP(R27L) mutant, light-adapted state (natural protein)
chain: MPFTIDSARGIFPNTLAADVVPATIALFSQLNAEDQLALIWFAYLEMGKTLTIAAPGAASMQLAENALKEIQAMGPLQQTQAMCDLANRADTPLCRTYASWSPNIKLGFWYRLGELMEQGFVAPIPAGYQLSANANAVLATIQGLESGQQITVLRNAVVDMGFTAGKDGKRIAEPVVPPQDTASRTKVSIEGVTNATVLNYMDNLNANDFDTLIELFTSDGALQPPFQRPIVGKENVLRFFREECQNLKLIPERGVTEPAEDGFTQIKVTGKVQTPWFGGNVGMNIAWRFLLNPEGKIFFVAIDLLASPKELLNFAR
SEC
  stoichiometry N: 2

B4: Orange Carotenoid Protein, light-adapted state (OCP^R), wild type, canthaxanthin-binding holo form, P74102 1-317 (natural protein)
chain: MPFTIDSARGIFPNTLAADVVPATIARFSQLNAEDQLALIWFAYLEMGKTLTIAAPGAASMQLAENALKEIQAMGPLQQTQAMCDLANRADTPLCRTYASWSPNIKLGFWYRLGELMEQGFVAPIPAGYQLSANANAVLATIQGLESGQQITVLRNAVVDMGFTAGKDGKRIAEPVVPPQDTASRTKVSIEGVTNATVLNYMDNLNANDFDTLIELFTSDGALQPPFQRPIVGKENVLRFFREECQNLKLIPERGVTEPAEDGFTQIKVTGKVQTPWFGGNVGMNIAWRFLLNPEGKIFFVAIDLLASPKELLNFAR
[6]
  Kd: 1800 nM
  stoichiometry N: 2
[7]
  stoichiometry N: 2
